Experimental data as given in patent publication US20140212423A1 (AbbVie / Abbott, published 2014).

What was measured:
[1] = biological target: T1, mouse Transferrin Receptor overexpressed on Hek 293 cells (mouse, UniProt Q62351 1-763); experiment: cell-based MSD-ECL binding on Hek293 cells overexpressing mouse TfR
T1 construct: whole, on cells; also called Hek293/mTfR; 293/mTFR
Description: (§1) Meso-scale Discovery (MSD) Electrochemiluminescesnce (ECL) assays to screen for antibodies or DVDs that bind a desired target antigen expressed on the cell surface were performed as follows: Hek 293 cells overexpressing mouse Transferin Receptor were added onto MSD 96-well plates (MSD Cat# L11 XB-3, lot#2290-EA) which were blocked using blocking buffer (30% FBS Serum (Hyclone) in PBS) at 37° C. for 1 hr. After incubating at RT for 30 min with mild agitation, plates were washed with DPBS 3 times and Abs/DVDs (10,000 ng/ml) were added. After incubating for 1 hr at RT, plates were washed 3 times with DPBS and 25 ul of Goat anti human Sulfo TAG (MSD Cat# R32AC-, Lot# W001162) at 1 μg/ml is added. Following a 1 h incubation at RT for 1 hr, plates are washed and MSD read buffer is added before reading on MSD SECTOR Imager 6000. EC50 values are obtained using Xlfit4 software package

[2] = biological target: T1, mouse Transferrin Receptor …; experiment: 293/mTFR cell-based assay
Description: as §1

T1 sequence (Q62351 whole entry): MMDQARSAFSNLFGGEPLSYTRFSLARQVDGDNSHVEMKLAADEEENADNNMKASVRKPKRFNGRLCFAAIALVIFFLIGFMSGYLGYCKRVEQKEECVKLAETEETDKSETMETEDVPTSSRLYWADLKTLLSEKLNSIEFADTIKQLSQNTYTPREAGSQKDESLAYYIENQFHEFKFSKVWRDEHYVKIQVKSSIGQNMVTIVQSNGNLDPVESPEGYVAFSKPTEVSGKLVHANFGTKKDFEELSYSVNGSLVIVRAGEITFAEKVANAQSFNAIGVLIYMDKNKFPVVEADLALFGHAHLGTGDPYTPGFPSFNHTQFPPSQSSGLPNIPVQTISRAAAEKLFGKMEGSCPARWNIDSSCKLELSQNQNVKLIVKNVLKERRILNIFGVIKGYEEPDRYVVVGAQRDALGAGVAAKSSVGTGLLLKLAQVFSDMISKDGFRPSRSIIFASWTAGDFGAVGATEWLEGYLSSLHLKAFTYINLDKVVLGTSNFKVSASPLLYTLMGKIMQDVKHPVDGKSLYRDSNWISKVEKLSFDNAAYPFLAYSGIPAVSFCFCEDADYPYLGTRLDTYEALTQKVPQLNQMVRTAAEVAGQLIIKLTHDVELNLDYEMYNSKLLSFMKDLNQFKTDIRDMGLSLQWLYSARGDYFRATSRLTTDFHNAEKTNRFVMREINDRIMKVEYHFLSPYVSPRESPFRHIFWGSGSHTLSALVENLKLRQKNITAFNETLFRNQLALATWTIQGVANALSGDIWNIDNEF

Binder | EC50 [1] | EC50 [2]
DVD1294 (bispecific antibody, DVD-Ig, outer AB221 (TfR), inner AB043 (APP), HG-short/LK-short; the entries are the dual variable regions only; constant regions not assigned) VH: EVQLVESGGGLVQPGNSLTLSCVASGFTFSNYGMHWIRQAPKKGLEWIAMIYYDSSKMNYADTVKGRFTISRDNSKNTLYLEMNSLRSEDTAMYYCAVPTSHYVVDVWGQGVSVTVSSASTKGPEVQLLESGGGLVQPGGSLRLSCAASGFTFSNYGMSWVRQAPGKGLEWVASIRSGGGRTYYSDNVKGRFTISRDNSKNTLYLQMNSLRAEDTAVYYCVRYDHYSGSSDYWGQGTLVTVSS VL: DIQMTQSPASLSASLEEIVTITCQASQDIGNWLAWYQQKPGKSPQLLIYGATSLADGVPSRFSGSRSGTQFSLKISRVQVEDIGIYYCLQAYNTPWTFGGGTKLELKRTVAAPDVVMTQSPLSLPVTPGEPASISCKSSQSLLDSDGKTYLNWLLQKPGQSPQRLIYLVSKLDSGVPDRFSGSGSGTDFTLKISRVEAEDVGVYYCWQGTHFPRTFGQGTKVEIKR | 0.11 nM | 
AB405-SL-Aβ(3D6) (bispecific antibody, DVD-Ig composed from its name; constant regions not assigned; also called AB405-SL-Aβ(3D6) DVD-Ig) VH: QVQLVQSGAEVKKPGASVKVSCKASGFTFSNYGMHWIRQAPGQGLEWIAMIYYDSSKMNYADTVKGRFTITRDNSTNTLYMELSSLRSEDTAVYYCAVPTSHYVVDVWGQGTTVTVSSASTKGPEVQLLESGGGLVQPGGSLRLSCAASGFTFSNYGMSWVRQAPGKGLEWVASIRSGGGRTYYSDNVKGRFTISRDNSKNTLYLQMNSLRAEDTAVYYCVRYDHYSGSSDYWGQGTLVTVSS VL: EIVMTQSPATLSVSPGERATLSCQASQDIGNWLAWYQQKPGQSPRLLIYGATSLADGVPARFSGSRSGTEFTLTISSLQSEDFAVYYCLQAYNTPWTFGGGTKVEIKRTVAAPSVFIFPPDVVMTQSPLSLPVTPGEPASISCKSSQSLLDSDGKTYLNWLLQKPGQSPQRLIYLVSKLDSGVPDRFSGSGSGTDFTLKISRVEAEDVGVYYCWQGTHFPRTFGQGTKVEIKR |  | 4.71 nM
DVD1295 (bispecific antibody, DVD-Ig, outer AB043 (APP), inner AB221 (TfR), HG-short/LK-short; dual variable regions only; constant regions not assigned) VH: EVQLLESGGGLVQPGGSLRLSCAASGFTFSNYGMSWVRQAPGKGLEWVASIRSGGGRTYYSDNVKGRFTISRDNSKNTLYLQMNSLRAEDTAVYYCVRYDHYSGSSDYWGQGTLVTVSSASTKGPEVQLVESGGGLVQPGNSLTLSCVASGFTFSNYGMHWIRQAPKKGLEWIAMIYYDSSKMNYADTVKGRFTISRDNSKNTLYLEMNSLRSEDTAMYYCAVPTSHYVVDVWGQGVSVTVSS VL: DVVMTQSPLSLPVTPGEPASISCKSSQSLLDSDGKTYLNWLLQKPGQSPQRLIYLVSKLDSGVPDRFSGSGSGTDFTLKISRVEAEDVGVYYCWQGTHFPRTFGQGTKVEIKRTVAAPDIQMTQSPASLSASLEEIVTITCQASQDIGNWLAWYQQKPGKSPQLLIYGATSLADGVPSRFSGSRSGTQFSLKISRVQVEDIGIYYCLQAYNTPWTFGGGTKLELKR | 3.7 nM | 

Next, values leading:

EC50 [1] | EC50 [2] | Binder
10.7 nM |  | DVD2361 (bispecific antibody) chain 1: EVQLLESGGGLVQPGGSLRLSCAASGFTFSNYGMSWVRQAPGKGLEWVASIRSGGGRTYYSDNVKGRFTISRDNSKNTLYLQMNSLRAEDTAVYYCVRYDHYSGSSDYWGQGTLVTVSSASTKGPEVQLVESGGGLVQPGGSLRLSCAASGFTFSNYGMHWIRQAPGKGLEWIAMIYYDSSKMNYADTVKGRFTISRDNAKNSLYLQMNSLRAEDTAVYYCAVPTSHYVVDVWGQGTTVTVSS chain 2: DVVMTQSPLSLPVTPGEPASISCKSSQSLLDSDGKTYLNWLLQKPGQSPQRLIYLVSKLDSGVPDRFSGSGSGTDFTLKISRVEAEDVGVYYCWQGTHFPRTFGQGTKVEIKRTVAAPEIVMTQSPATLSVSPGERATLSCQASQDIGNWLAWYQQKPGQSPRLLIYGATSLADGVPARFSGSRSGTEFTLTISSLQSEDFAVYYCLQAYNTPWTFGGGTKVEIKR
 | 3.9 nM | TfR(AB405)-LS-RGMA(AE12-1) (bispecific antibody) chain 1: QVQLVQSGAEVKKPGASVKVSCKASGFTFSNYGMHWIRQAPGQGLEWIAMIYYDSSKMNYADTVKGRFTITRDNSTNTLYMELSSLRSEDTAVYYCAVPTSHYVVDVWGQGTTVTVSSASTKGPSVFPLAPEVQLVQSGAEVKKPGASVKVSCKASGYTFTSHGISWVRQAPGQGLDWMGWISPYSGNTNYAQKLQGRVTMTTDTSTSTAYMELSSLRSEDTAVYYCARVGSGPYYYMDVWGQGTLVTVSS chain 2: EIVMTQSPATLSVSPGERATLSCQASQDIGNWLAWYQQKPGQSPRLLIYGATSLADGVPARFSGSRSGTEFTLTISSLQSEDFAVYYCLQAYNTPWTFGGGTKVEIKRTVAAPQSALTQPRSVSGSPGQSVTISCTGTSSSVGDSIYVSWYQQHPGKAPKLMLYDVTKRPSGVPDRFSGSKSGNTASLTISGLQAEDEADYYCCSYAGTDTLFGGGTKVTVLG
